From patent publication US11491212

B1: FIXa K247N/N249S/R318Y/R338E/T343R/E410N (protein)
chain 1: not shown
chain 2: not shown
B2: FIXa K247N/N249S/R318Y/T343R/E410N (protein)
chain 1: not shown
chain 2: not shown
B3: FIXa Y155F/K247N/N249S/R318Y/T343R/R403E/E410N (protein)
chain 1: not shown
chain 2: not shown
B4: FIXa Y155F/K247N/N249S/R318Y/T343R/E410N (protein)
chain 1: not shown
chain 2: not shown
B5: FIXa Y155F/K247N/N249S/R338E/E410N (protein)
chain 1: not shown
chain 2: not shown
B6: FIXa K247N/N249S/R318Y/T343R/R403E (protein)
chain 1: not shown
chain 2: not shown
B7: FIXa K247N/N249S/R318Y/T343R/R403E/E410N (protein)
chain 1: not shown
chain 2: not shown
B8: FIXa Y155F/K247N/N249S/R318Y/T343R/R403E (protein)
chain 1: not shown
chain 2: not shown
B9: FIXa-R318Y/R338E/E410S (protein)
chain 1: not shown
chain 2: not shown
B10: FIXa-D104N/K106S/Y155F/K228N/K247N/N249S (protein)
chain 1: not shown
chain 2: not shown

Target: Factor X, P00742
Sequence (P00742 whole entry, looked up): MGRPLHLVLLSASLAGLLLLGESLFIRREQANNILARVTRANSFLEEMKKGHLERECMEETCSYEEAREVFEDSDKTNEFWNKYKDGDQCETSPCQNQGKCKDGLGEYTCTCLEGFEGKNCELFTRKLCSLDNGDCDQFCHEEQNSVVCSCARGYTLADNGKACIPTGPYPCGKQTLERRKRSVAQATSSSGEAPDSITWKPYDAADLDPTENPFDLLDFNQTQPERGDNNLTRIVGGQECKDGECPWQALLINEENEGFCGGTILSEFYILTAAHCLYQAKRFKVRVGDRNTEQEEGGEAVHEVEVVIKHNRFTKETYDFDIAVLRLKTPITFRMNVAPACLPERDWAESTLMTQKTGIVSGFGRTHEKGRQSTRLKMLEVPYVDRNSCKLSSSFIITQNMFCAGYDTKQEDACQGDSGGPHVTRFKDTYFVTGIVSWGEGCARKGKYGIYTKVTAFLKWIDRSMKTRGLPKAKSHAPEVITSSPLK

How did the “% of WT kcat/KM” value turn out when B1 was run?
The value was 687%.

What about the kcat/KM of the same protein?
Its kcat/KM is 3.2e+08 M⁻¹ s⁻¹.

What does the source list for B2?
% of WT kcat/KM: 439%; kcat/KM: 2e+08 M⁻¹ s⁻¹

How did the “% of WT kcat/KM” value turn out when B3 was run?
Its value is 350%.

And the kcat/KM?
The kcat/KM was 1.6e+08 M⁻¹ s⁻¹.

Which “% of WT kcat/KM” value does the source give for B4 here?
The value was 668%.

What about the kcat/KM of the same protein?
Its kcat/KM is 3.1e+08 M⁻¹ s⁻¹.

What does the source list for B5?
% of WT kcat/KM: 1009%; kcat/KM: 4.7e+08 M⁻¹ s⁻¹

B6 was tested. Which “% of WT kcat/KM” value did it give?
The value was 84%.

And the kcat/KM?
The kcat/KM was 3.9e+07 M⁻¹ s⁻¹.

With B7 as the protein, how does the “% of WT kcat/KM” value read?
The value was 279%.

What about the kcat/KM of the same protein?
The kcat/KM was 1.3e+08 M⁻¹ s⁻¹.

What does the source list for B8?
% of WT kcat/KM: 276%; kcat/KM: 1.3e+08 M⁻¹ s⁻¹

Target: Factor X (FX), P00742
Sequence (P00742 whole entry, looked up): as above

Which results are given for B9?
% of WT kcat/KM (against Catalyst Biosciences WT FIXa): 708%; kcat/KM for activation of FX by FIXa in the Xase complex (FVIIIa, PC/PS vesicles, Ca2+), fluorogenic Spectrafluor FXa read-out: 3.3e+08 M⁻¹ s⁻¹

What does the source list for B10?
% of WT kcat/KM (against Catalyst Biosciences WT FIXa): 137%; kcat/KM for activation of FX by FIXa in the Xase complex (FVIIIa, PC/PS vesicles, Ca2+), fluorogenic Spectrafluor FXa read-out: 6.3e+07 M⁻¹ s⁻¹
